US20240115706A1 (LG CHEM, published 2024)

T1: mouse GUCY2C-rCD4 fusion protein (Mus musculus (house mouse); Rattus …, limits assumed)
T1 construct: Prepared by the same method as the human antigen; also called Mu-GUCY2C-rCD4; murine GUCY2C recombinant antigen
T1 chain: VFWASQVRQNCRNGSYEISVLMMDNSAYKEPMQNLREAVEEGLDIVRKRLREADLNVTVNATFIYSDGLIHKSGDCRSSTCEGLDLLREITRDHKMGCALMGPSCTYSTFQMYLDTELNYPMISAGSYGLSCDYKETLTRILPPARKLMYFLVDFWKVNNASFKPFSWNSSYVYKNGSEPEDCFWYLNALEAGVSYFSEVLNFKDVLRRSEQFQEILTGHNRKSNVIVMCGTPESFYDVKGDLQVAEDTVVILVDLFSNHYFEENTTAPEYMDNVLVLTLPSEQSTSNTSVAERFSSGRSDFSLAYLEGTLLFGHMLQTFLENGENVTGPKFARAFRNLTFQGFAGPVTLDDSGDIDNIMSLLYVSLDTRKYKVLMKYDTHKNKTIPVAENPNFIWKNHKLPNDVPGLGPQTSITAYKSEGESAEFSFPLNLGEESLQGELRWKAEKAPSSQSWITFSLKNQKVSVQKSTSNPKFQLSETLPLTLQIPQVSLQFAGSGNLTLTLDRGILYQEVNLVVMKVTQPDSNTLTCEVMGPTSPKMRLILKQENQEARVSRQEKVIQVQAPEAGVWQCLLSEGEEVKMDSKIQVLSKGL

T2: monkey GUCY2C-rCD4 fusion protein (Macaca fascicularis (crab-eating …, limits assumed))
T2 construct: Prepared by the same method as the human antigen; also called Cy-GUCY2C-rCD4; monkey GUCY2C recombinant antigen
T2 chain: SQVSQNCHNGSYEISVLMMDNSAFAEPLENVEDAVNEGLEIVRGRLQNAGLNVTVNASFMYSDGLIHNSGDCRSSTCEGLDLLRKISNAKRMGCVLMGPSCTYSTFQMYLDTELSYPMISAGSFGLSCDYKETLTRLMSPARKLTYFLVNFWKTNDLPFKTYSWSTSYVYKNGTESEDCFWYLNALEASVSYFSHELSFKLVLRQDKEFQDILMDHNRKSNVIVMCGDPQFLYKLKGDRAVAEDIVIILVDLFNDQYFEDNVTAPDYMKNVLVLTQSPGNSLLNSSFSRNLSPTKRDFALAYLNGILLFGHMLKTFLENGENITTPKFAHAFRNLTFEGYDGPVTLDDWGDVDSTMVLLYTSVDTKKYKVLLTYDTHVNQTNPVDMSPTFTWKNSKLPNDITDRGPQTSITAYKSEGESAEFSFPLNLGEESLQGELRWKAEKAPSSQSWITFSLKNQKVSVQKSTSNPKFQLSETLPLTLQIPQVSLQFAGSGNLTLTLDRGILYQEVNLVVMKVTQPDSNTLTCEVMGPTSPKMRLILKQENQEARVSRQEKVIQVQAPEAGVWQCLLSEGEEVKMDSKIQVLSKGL


What was measured:
[1] = target: T3, human GUCY2C-rCD4 fusion protein (Homo sapiens (human); Rattus norvegicus, biotinylated (site not given)); test: ELISA (DELFIA), antigen on streptavidin plate, scFv culture solution, Eu-anti-tag Ab
T3 construct: GUCY2C conjugated/fused with CD4; also called Hu-GUCY2C-rCD4; human GUCY2C recombinant antigen
Description: (§1) More specifically, GUCY2C-rCD4 fusion protein, in which the prepared human GUCY2C (SEQ ID NO: 112), monkey GUCY2C (SEQ ID NO: 114), and mouse GUCY2C (SEQ ID NO: 113) were fused, respectively, was bound to a place coated with streptavidin in a Nunc Maxisorp™96 well plate. After removing all the synthetic proteins not combined with washing buffer, the anti-GUCY2C scFV obtained in the culture solution was incubated in each well. After that, the affinity was measured by reading signals DELFIA enhanced using Eu-anti-tag Ab.

[2] = target: T1, mouse GUCY2C-rCD4 fusion protein; test: as above
Description: as §1

[3] = target: T2, monkey GUCY2C-rCD4 fusion protein; test: as above
Description: as §1

[4] = target: T3, human GUCY2C-rCD4 fusion protein; test: ranking ELISA (DELFIA), 50 nM scFv on anti-FLAG, biotinylated antigen, streptavidin-Eu
Description: (§2) More specifically, after coating an anti-FLAG antibody in a MaxiSorb plate and binding by adding scFvs obtained previously, the remaining scFvs were removed by a washing process. Here, a biotinylated human-GUCY2C-rCD4 protein was incubated and combined, and then the affinity to the antigen was measured by reading signals by DELFIA enhancement with color development through streptavidin-Europlum.

[5] = target: T3, human GUCY2C-rCD4 fusion protein; test: ranking ELISA (DELFIA), 5 nM scFv on anti-FLAG, biotinylated antigen, streptavidin-Eu
Description: as §2

[6] = target: T3, human GUCY2C-rCD4 fusion protein; test: SPR (Sierra SPR-32), scFv on protein G, antigen 800-12.5 nM, 25 C
Description: Furthermore, the affinity to the GUCY2C antigen of the 18 kinds of scFvs produced in Example 1 was measured by SPR (Surface plasmon resonance) analysis.
SPR assay was performed with association time 2 min and dissociation time 10 min under the condition of 25 degrees of Celsius using MASS2 (Sierra SPR-32; Bruker). The data were analyzed with Software R3.

[7] = target: T4, GUCY2C on the cell surface (T84 colon carcinoma cells; HT29-GUCY2C cells) (human, UniProt P25092 24-1073); test: flow cytometry, scFv(-Fc) at 10 ug/mL on GUCY2C-positive T84 cells, detected with IgG-Fc-PE Ab (FL2-H)
T4 construct: whole, on cells; also called GUCY2C expressing T84 cells; HT29 GCC cells
Description: (§3) Using cells naturally expressing GUCY2C, whether 18 kinds of scFvs produced in Example 1 could actually detect GUCY2C expression on the cell surface was confirmed. For this, a GUCY2C positive cancer cell, T84 colon carcinoma cell (ATCC® CCL248™) was used.
(§4) After separating the two cell lines using trypsin-EDTA, they were placed in FACS buffer (1×PBS+2% BSA). 10 ug/mL of each of the 18 kinds of scFvs and positive control group, 5F9 scFv was cultured with T84 and T-47D cells on ice for 1 hour. The scFv combined to cells was detected using 5 ug/mL IgG-Fc-PE Ab (BioLegend; 409304). The cells were cultured with ToPro®3 (live/dead stain) and then red with a flow cytometer.

[8] = target: T4, GUCY2C on the cell surface (T84 colon …); test: flow cytometry on T84 cells, median MFI on live singlet cells (IgG-Fc-PE signal), scFv(-Fc) at 10 ug/mL
Description: as §3, §4

[9] = target: T3, human GUCY2C-rCD4 fusion protein; test: ranking ELISA (DELFIA), 50 nM scFv on anti-FLAG, biotinylated antigen, streptavidin-Eu; affinity ranking ELISA, 50 nM: binds
Description: as §2

[10] = target: T3, human GUCY2C-rCD4 fusion protein; test: ranking ELISA (DELFIA), 5 nM scFv on anti-FLAG, biotinylated antigen, streptavidin-Eu; affinity ranking ELISA, 5 nM: binds
Description: as §2

[11] = target: T3, human GUCY2C-rCD4 fusion protein; test: ELISA (DELFIA), antigen on streptavidin plate, scFv culture solution, Eu-anti-tag Ab; binding ELISA, Hu-GUCY2C-rCD4 antigen: binds
Description: as §1

Binder	Binding ELISA signal [1]	Binding ELISA signal [2]	Binding ELISA signal [3]	Affinity Ranking ELISA (50 nM) signal [4]	Affinity Ranking ELISA (5 nM) signal [5]	Kd [6] [nM]	binding result [7]	binding result [8]	Affinity Ranking ELISA (50 nM) signal [9]	Affinity Ranking ELISA (5 nM) signal [10]	Binding ELISA signal [11]
scFv B01 (scFv, also called 2433_01_H07; H07) scFv: EVQLVQPGAEVKKPGSSVKVSCKASGGTLSSYAISWVRQAPGQGLEWMGRIIPILGITNYAQKFQGRVTITADKSTSTAYMELSSLRSEDTAVYFCARDQRPASMDVWGQGTLVTVSSGGGGSGGGGSGGGASQSGLTQPASVSGSPGQSITISCTGTSSDVGGYNYVSWYQQHPGKAPKLMIYEVSNRPSGVSNRFSGSKSGNTASLTISGLQAEDEADYYCSTVTSLSTYVFGTGTKLTVL	39400		4490	133000	26200	335	binds				
scFv A01 (scFv, also called 2426_01_A02) scFv: QVQLVQSGAEVKKPGASVKVSCKASGYTFTSYYMHWVRQAPGQGLEWMGIINPSGGSTSYAQEFQGRVTMTRDTSTSTVYMELSSLRSEDTAVYYCARDGQWLQFDYWGQGTLVTVSSGGGGSGGGGSGGGASDIVMTQSPLSLPVTLGQPASISCRSSQSLLKKSDGNTYLSWYHQRPGQSPRRLIYKVSNRDSGVPDRFSGSGSDTDFTLKISRVETEDVGIYYCMQGSHWPPTFGQGTKVEIK			28100						104000	13800	30200
scFv B12 (scFv, also called 2437_02_G10) scFv: QVQLVESGGGLVKPGGSLRLSCAASGFTFSSYSMNWVRQAPGKGLEWVSVIYSGGSTHYADSVKGRFTISRHNSKNTLYLQMNSLRAEDTAVYYCARGAGTLNAFDIWGQGTTVTVSSGGGGSGGGGSGGGASQSGLTQPPSTSGSPGQSVTISCTGTSSDVGAYSYVSWYQQHPGKAPKLLIYAVTKRPSGVPDRFSGSKSGNTASLTVSGLQDEDEADYYCSSFAGGSTLVFGGGTKLTVL	30900		22100	77100	9590	4540	binds				
scFv A08 (scFv, also called 2432_01_D05) scFv: EVQLLESGGGLVQPGGSLRLSCAASGFTFSSYWMSWVRQAPGKGLEWVANIKQDGSEKYYVDSVKGRFTISRDNAKNSLYLQMNSLRAEDTAVYYCAKAPWYSSSPTPYGMDVWGQGTLVTVSSGGGGSGGGGSGGGASDIQMTQSPSSLSASVGDRVTITCQASQDISNYLNWYQQKPGKAPRRLIYGASTLMSGVPSRFSGSGSGTDFTLTISSLQPEDFATYYCQQSYSTPLTFGGGTKVEIK									54800	8700	58100

Next, values leading:

Binding ELISA signal [1]	Binding ELISA signal [2]	Binding ELISA signal [3]	Affinity Ranking ELISA (50 nM) signal [4]	Affinity Ranking ELISA (5 nM) signal [5]	Kd [6] [nM]	binding result [7]	binding result [8]	Affinity Ranking ELISA (50 nM) signal [9]	Affinity Ranking ELISA (5 nM) signal [10]	Binding ELISA signal [11]	Binder
79000	17100	51100	27700	4740	3730						scFv A07 (scFv, also called 2427_01_C02) scFv: QVQLQESGPGLVKPSETLSLTCTVSGGSISSYYWSWIRQPPGKGLEWIGSIYYSGSTNYNPSLKSRVTISRDKSKNQLFLKLNSMTAADTAVYYCARDVWGSGQSFDSWGQGTLVTVSSGGGGSGGGGSGGGASNFMLTQPHSVSESPGKTVTISCTRSSGSIASNYVQWYQQRLGSSPTTVIYEHSRRPSGVPDRFSASIDSSSNSASLTISGLKTEDEADYYCQSYDVSNRVFGGGTKLTVL
37500		23600	89600	14800	1330		binds				scFv B11 (scFv, also called 2437_02_G07; G07) scFv: QVQLVESGAEVKKPGSSVKVSCKASGGTFSSYAISWVRQAPGQGLEWMGGIIPIFGTANYAQKFQGRVTITADESTSTAYMELSGLRSEDTAVYYCARGIQPLRYYGMDVWGQGTLVTVSSGGGGSGGGGSGGGASQSALTQPPSASGTPGQRVTISCSGSSSNIGSNYVYWYQQLPGTAPKLLIYRNNQRPSGVPDRFSGSKSGTSASLAISGLRSEDEADYYCAAWDDSLSGRGVFGGGTQLTVL
								153000	23300	61100	scFv B08 (scFv, also called 2436_02_F11) scFv: EVQLVQSGAEVKKPGSSVKVSCKASGGTFSSYAISWVRQAPGQGLEWMGGIIPIFGTANYAQKFQGRVTITADKSTSTAYMELSSLRSEDTAVYYCARGHYYYMDVWGQGTTVTVSSGGGGSGGGGSGGGASDIVMTQSPATLSVSPGEGATLSCRASQSVSSNLAWYQQKPGRAPRLLIYGASTRATGIPARFSGSGSGTEFTLTISSLQSEDFAVYYCQQYNNWPSFGGGTKLEIK
